Legend:
[1] = target: T1, endopolygalacturonase from Fusarium moniliforme deglycosylated with endo-H (Fusarium moniliforme, UniProt Q07181 25-373, a single GlcNAc residue at each of the four N-glycosylation sites (observed mass 37110 Da against 36198 Da calculated for the polypeptide)); assay: SPR; PGIP-2 immobilised by amine coupling on a CM5 chip (4000-5000 RU), BIACORE X; PG solutions in 25 mM ammonium acetate buffer pH 5.0 injected at 5 ul/min; buffer-treated reference flow-cell; bound deglycosylated enzyme eluted with NH4HCO3 pH 8 and analysed by MALDI-TOF MS; conditions: both partners purified
T1 construct: endopolygalacturonase (PG), Fusarium moniliforme; the same polypeptide as m2, glycans trimmed by endo-H; calculated mass of the polypeptide 36198 Da; also called PG + EndoH; deglycosylated FmPG; source: expressed in Saccharomyces cerevisiae, purified, deglycosylated with endo-H
T1 sequence: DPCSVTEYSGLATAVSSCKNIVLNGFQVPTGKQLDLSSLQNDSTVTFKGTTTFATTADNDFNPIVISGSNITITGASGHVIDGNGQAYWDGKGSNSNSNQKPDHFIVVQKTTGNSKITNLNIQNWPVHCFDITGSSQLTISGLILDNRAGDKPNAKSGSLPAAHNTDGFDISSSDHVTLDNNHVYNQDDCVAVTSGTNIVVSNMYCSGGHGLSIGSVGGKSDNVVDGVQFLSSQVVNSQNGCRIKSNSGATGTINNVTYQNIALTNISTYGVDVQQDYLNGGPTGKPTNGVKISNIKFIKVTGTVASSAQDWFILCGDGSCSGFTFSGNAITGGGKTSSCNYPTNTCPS

[2] = target: T2, endopolygalacturonase from Fusarium moniliforme, native (glycosylated) enzyme expressed in Saccharomyces … (Fusarium moniliforme, UniProt Q07181 25-373, N-linked high-mannose type glycans (up to 14 Man residues in the chain at Asn65); four potential N-glycosylation sites; glycoforms of 43, 46 and 50 kDa); assay: as above; conditions: both partners purified
T2 construct: endopolygalacturonase (PG), Fusarium moniliforme; calculated mass of the polypeptide 36198 Da (36.2 kDa); also called FmPG; PG; source: expressed in Saccharomyces cerevisiae, purified
T2 sequence: T1 sequence

B1: polygalacturonase-inhibiting protein PGIP-2 of Phaseolus vulgaris (natural protein, UniProt P58822 30-342, looked up)
chain: ELCNPQDKQALLQIKKDLGNPTTLSSWLPTTDCCNRTWLGVLCDTDTQTYRVNNLDLSGLNLPKPYPIPSSLANLPYLNFLYIGGINNLVGPIPPAIAKLTQLHYLYITHTNVSGAIPDFLSQIKTLVTLDFSYNALSGTLPPSISSLPNLVGITFDGNRISGAIPDSYGSFSKLFTSMTISRNRLTGKIPPTFANLNLAFVDLSRNMLEGDASVLFGSDKNTQKIHLAKNSLAFDLGKVGLSKNLNGLDLRNNRIYGTLPQGLTQLKFLHSLNVSFNNLCGEIPQGGNLQRFDVSAYANNKCLCGSPLPACT
notes: a leucine-rich repeat protein; also called bean PGIP-2; source: Nicotiana benthamiana plants infected with PVX, purified
binding result [1]: binds
binding result [2]: binds

Source: publication PMC2447227, “The Interaction Between Endopolygalacturonase From Fusarium Moniliforme and PGIP from Phaseolus Vulgaris Studied by Surface Plasmon Resonance and Mass Spectrometry” (Comparative and Functional Genomics, 2001)
